Test [1] deals with HIS-tagged GATE-16wt (aa 1-115) (human, UniProt P60520 1-115). As to the kind of experiment: BLI; Octet RED96; N-terminally biotinylated peptides on streptavidin biosensors, quenched with biocytin; HIS-tagged LC3B/GATE-16 proteins as analyte, 6.8 nM to 5 μM (LC3Bwt on NDP52 peptide: 312.5 nM to 20 μM); DPBS with 150 mM NaCl, 1% BSA, 0.02% Tween 20; 1:1 global fit. The conditions noted are these: both partners purified. Background: BLI is a label-free optical method that tracks binding on a fibre tip over time.
Chain of HIS-tagged GATE-16wt (aa 1-115) (P60520 1-115): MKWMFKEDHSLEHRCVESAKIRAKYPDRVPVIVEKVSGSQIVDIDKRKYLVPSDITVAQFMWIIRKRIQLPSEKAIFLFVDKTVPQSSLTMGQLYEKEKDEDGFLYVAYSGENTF

In test [2] the target is HIS-tagged LC3Bwt (aa 1-119) (human, UniProt Q9GZQ8 1-119). The description is as above. The conditions noted are these: both partners purified.

The source of these data is article PMC7137635, “Disrupting the LC3 Interaction Region (LIR) Binding of Selective Autophagy Receptors Sensitizes AML Cell Lines to Cytarabine” (Frontiers in Cell and Developmental Biology, 2020).

Non-standard residues stand in square brackets, D forms with d. No end group written: not given here. *: point of attachment. Biotin = O=C1N[C@H]2[C@H](CS[C@H]2CCCCC(=O)*)N1; pS = N[C@@H](COP(=O)(O)O)C(=O)O

B1: p62 LIR peptide (332-346), biotinylated (peptide)
peptide: Biotin-SGGDDDWTHLSSKEV
notes: human p62/SQSTM1 LIR peptide, residues 332-346; also called p62 (332–346); source: synthetic peptide (GenScript, over 75% purity)
As for B1, the binding result in test [1] is “binds”.

B2: pS177 OPTN LIR peptide (172-186), biotinylated (peptide)
peptide: Biotin-GSSED[pS]FVEIRMAEG
notes: also called pS177 OPTN (172–186); pS177 OPTN peptide; source: synthetic peptide (GenScript, over 75% purity)
Turning to B2, the Kd – broadly, the concentration at which binding is half-saturated – in test [2] came out at 0.8 ± 0.048 µM.

B3: OPTN LIR peptide (172-186), biotinylated (peptide)
peptide: Biotin-GSSEDSFVEIRMAEG
notes: human optineurin (OPTN) LIR peptide, residues 172-186; also called OPTN (172–186); OPTN peptide; source: synthetic peptide (GenScript, over 75% purity)
In turn, B3 showed a Kd in test [2] of 8.4 µM.
